Measured values taken from article PMC9329571, “Regulation of TIA-1 Condensates: Zn2+ and RGG Motifs Promote Nucleic Acid Driven LLPS and Inhibit Irreversible Aggregation”.

B1: TIA-1 RRM2,3 (amino acids 93-274), wild type [not stated] / itself (parent)
chain: NHFHVFVGDLSPEITTEDIKAAFAPFGRISDARVVKDMATGKSKGYGFVSFFNKWDAENAIQQMGGQWLGGRQIRTNWATRKPPAPKSTYESNTKQLSYDEVVNQSSPSNCTVYCGGVTSGLTEQLMRQTFSPFGQIMEIRVFPDKGYSFVRFNSHESAAHAIVSVNGTTIEGHVVKCYWGK

Variants of: B1
Assay: turbidity (A385 nm)
Details: with itself; TIA-1:ZnCl2 ratio 1:8; 20 µM protein; 20 mM HEPES, 50 mM NaCl, 1 mM TCEP, pH 6.9, 25°C, within 30 min incubation under shaking; read off a plot

response [A.U.]	Variant
0.056	chain 1 H2A H4A
0.072	chain 1 H4A
0.058	chain 1 H2A
